Values of other authors as cited in article PMC5358871.

Molecular target: Bfd (Pseudomonas aeruginosa) (UniProt Q9HY80)
Test: SPR, ITC

Sequence of UniProt Q9HY80 (Q9HY80 whole entry): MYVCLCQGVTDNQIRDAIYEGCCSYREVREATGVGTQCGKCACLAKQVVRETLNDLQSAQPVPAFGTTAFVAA

BfrB (from UniProt Q9HY79)
Kd: 3000 nM
